The values that follow come from patent US20150344570A1 (published 2015).

One assay concerns the target T1, FcgRIa (human, UniProt P12314 16-292).
T1 construct: extracellular domain; also called FcγRIa; FcγRI; not shown: His tag at the C terminus
Nature of the assay: SPR (Biacore), antibody captured, FcgR extracellular domain as analyte. As for the experimental part:
(§1) Next, the amino acid at position 330 was examined. The A330M alteration has been introduced into H240-Hl076 of H240-Kn125/H240-Hl076/L73-k0. […] L73-k0 was used as the common antibody L chain. Binding of the produced variants to FcgRIa, FcgRIIaR, FcgRIIaH, FcgRIIb, FcgRIIIaF, and FcgRIIIaV was measured according to the method of Reference Example 8.
(§2) Analysis of interaction between objective antibody and the FcγR was carried out using Biacore T100 (GE Healthcare), Biacore T200, Biacore A100, and Biacore 4000. HBS-EP+ (GE Healthcare) was used as the running buffer, and the measurement temperature was set to 25° C. Chips produced by immobilizing the antigen peptide by the amine coupling method to a Series S sensor Chip CM5 (GE Healthcare), chips produced by allowing preliminarily biotinylated antigen peptides to interact with and immobilize onto a Series S Sensor Chip SA (certified) (GE Healthcare), chips produced by immobilizing Protein L (ACTIGEN, BioVision) to Series S Sencor Chip CM5 (GE Healthcare), or chips produced by immobilizing Protein A/G (Thermo Scientific) to Series S Sencor Chip CM5 (GE Healthcare) were used. Antibodies of interest were captured onto these chips, and allowed to interact to each FcγR diluted with running buffer. To regenerate and repeatedly use the chip, the antibodies captured onto the chip were washed off by reacting 10 mM glycine-HCl, pH 1.5.
In general terms: Surface plasmon resonance follows binding to a sensor surface in real time, without labels.

In assay [1] the target is T2, FcgRIIaR (human, UniProt P12318 34-217).
T2 construct: extracellular domain; also called FcγRIIa R; FcγRIIa type R; not shown: His tag at the C terminus
T2 sequence (looked up): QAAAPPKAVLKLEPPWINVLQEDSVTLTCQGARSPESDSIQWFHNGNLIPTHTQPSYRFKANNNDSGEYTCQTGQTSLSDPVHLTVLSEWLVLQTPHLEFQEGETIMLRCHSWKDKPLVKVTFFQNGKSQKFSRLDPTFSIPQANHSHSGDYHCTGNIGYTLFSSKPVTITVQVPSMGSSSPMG
The description is as above. Here is the method:
as §1, §2

Assay [2] deals with T3, FcgRIIaH (human, UniProt P12318 34-217).
T3 construct: extracellular domain; also called FcγRIIa H; FcγRIIa type H; not shown: His tag at the C terminus
T3 sequence (looked up): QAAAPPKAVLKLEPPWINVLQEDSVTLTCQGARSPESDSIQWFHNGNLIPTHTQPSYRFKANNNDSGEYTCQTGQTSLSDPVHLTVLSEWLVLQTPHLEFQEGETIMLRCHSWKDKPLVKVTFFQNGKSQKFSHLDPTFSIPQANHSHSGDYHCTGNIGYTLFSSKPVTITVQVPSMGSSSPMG
The description is as above. As for the experimental part: as §1, §2

For assay [3], the target named is T4, FcgRIIb (human, UniProt P31994 43-217).
T4 construct: extracellular domain; also called FcγRIIb; 2b; not shown: His tag at the C terminus
T4 sequence (looked up): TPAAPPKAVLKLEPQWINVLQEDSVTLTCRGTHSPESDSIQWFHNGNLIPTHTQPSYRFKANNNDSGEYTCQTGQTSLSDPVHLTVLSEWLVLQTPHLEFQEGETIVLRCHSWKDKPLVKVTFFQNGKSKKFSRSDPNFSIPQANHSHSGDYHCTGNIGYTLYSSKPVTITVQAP
The assay is described as above. As for the experimental part: as §1, §2

Assay [4] concerns the target T5, FcgRIIIaF (human, UniProt P08637 17-208).
T5 construct: extracellular domain; Polymorphic site after J. Clin. Invest; also called FcγRIIIa F; 3aF; not shown: His tag at the C terminus
Described as above. Here is the method:
as §1, §2

The target in assay [5] is T6, FcgRIIIaV (human, UniProt P08637 17-208).
T6 construct: extracellular domain; Polymorphic site after J. Clin. Invest; also called FcγRIIIa V; 3aV; not shown: His tag at the C terminus
T6 sequence (P08637 17-208 F176V limits assumed): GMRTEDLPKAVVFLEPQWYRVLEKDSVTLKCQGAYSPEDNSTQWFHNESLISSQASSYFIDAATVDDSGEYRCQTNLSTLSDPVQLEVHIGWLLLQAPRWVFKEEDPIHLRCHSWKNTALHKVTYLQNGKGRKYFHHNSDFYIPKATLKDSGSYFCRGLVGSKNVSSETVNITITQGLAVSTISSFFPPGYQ
Described as above. Here is the method:
as §1, §2

The target in assay [6] is T2, FcgRIIaR. Nature of the assay: SPR (Biacore); KD of H240-Kn033/H240-Hl033/L73-k0 divided by KD of the variant. As for the experimental part:
as §1, §2

Assay [7] deals with T3, FcgRIIaH. The description is as above. Here is the method: as §1, §2
The target of assay [8] is T4, FcgRIIb. The assay is described as above. Here is the method: as §1, §2
Assay [9] concerns the target T5, FcgRIIIaF. The description is as above. Here is the method: as §1, §2
The target of assay [10] is T6, FcgRIIIaV. Described as above. As for the experimental part: as §1, §2

A word on the Kd: it is a measure of binding affinity in units of concentration. Higher therefore signals lower affinity.

T5 sequence (P08637 17-208): as the sequence (P08637 17-208 F176V limits assumed) above, with V160F counted along it
T1 sequence (P12314 16-292): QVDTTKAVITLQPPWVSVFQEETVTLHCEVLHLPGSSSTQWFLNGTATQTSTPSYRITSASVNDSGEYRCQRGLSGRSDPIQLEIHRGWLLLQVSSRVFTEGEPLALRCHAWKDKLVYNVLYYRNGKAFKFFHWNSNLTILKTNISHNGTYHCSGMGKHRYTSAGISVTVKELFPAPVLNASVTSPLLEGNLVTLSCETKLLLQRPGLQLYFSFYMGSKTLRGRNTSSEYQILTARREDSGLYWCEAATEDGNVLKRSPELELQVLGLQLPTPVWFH

B1: H240-Kn125/H240-Hl210/L73-k0 (antibody, human IgG1, kappa)
heavy 1: QDQLVQSGAEVKKPGASVKVSCKASGFNIKDTYIQWVRQAPGQGLEWMGRIDPLRKQTKYREKFEGRVTITADTSTNTAYMELSSLRSEDTAVYYCVRSGREFDYWGQGTLVTVSSASTKGPSVFPLAPSSKSTSGGTAALGCLVKDYFPEPVTVSWNSGALTSGVHTFPAVLQSSGLYSLSSVVTVPSSSLGTQTYICNVNHKPSNTKVDKKVEPKSCDKTHTCPPCPAPEYQWGPMVFLFPPKPKDTLMISRTPEVTCVVVDVSDEEPEVKFNWYVDGVEVHNAKTKPREEQYNATYRVVSVLTVLHQDWLNGKEYKCKVSNKALPAPIEKTISKAKGQPREPQVCTLPPSRDELTKNQVSLWCLVKGFYPSDIAVEWESNGQPENNYKTTPPVLDSDGSFFLYSKLTVDKSRWQQGNVFSCSVMHEALHNHYTQKSLSLSP
heavy 2: QDQLVQSGAEVKKPGASVKVSCKASGFNIKDTYIQWVRQAPGQGLEWMGRIDPLRKQTKYREKFEGRVTITADTSTNTAYMELSSLRSEDTAVYYCVRSGREFDYWGQGTLVTVSSASTKGPSVFPLAPSSKSTSGGTAALGCLVKDYFPEPVTVSWNSGALTSGVHTFPAVLQSSGLYSLSSVVTVPSSSLGTQTYICNVNHKPSNTKVDKKVEPKSCDKTHTCPPCPAPELLGGPSVFLFPPKPKDTLMISRTPEVTCVVVDVSHEEPEVKFNWYVDGVEVHNAKTKPREEQYNSTYRVVSVLTVLHQDWLNGKEYKCKVSNDALPAPIEETISKAKGQPREPQVYTLPPSRCELTKNQVSLSCAVKGFYPSDIAVEWESNGQPENNYKTTPPVLDSDGSFFLVSKLTVDKSRWQQGNVFSCSVMHEALHNHYTQKSLSLSP
light: DIQMTQSPSSLSASVGDRVTITCRASQDIHKYIAWYQQKPGQAPRLLIQYTSTLQPGVPSRFSGSGSGTDYTFTISSLQPEDIATYYCLQYEQLRTFGGGTKVEIKRTVAAPSVFIFPPSDEQLKSGTASVVCLLNNFYPREAKVQWKVDNALQSGNSQESVTEQDSKDSTYSLSSTLTLSKADYEKHKVYACEVTHQGLSSPVTKSFNRGEC
For B1, the Kd with FcgRIa was 0.065 nM; with FcgRIIaR [1], 650 nM; with FcgRIIaH [2], 150 nM; with FcgRIIb [3], 6900 nM; with FcgRIIIaF [4], 4.1 nM; in the assay with FcgRIIIaV [5] it was 0.48 nM. For the same molecule, the “fold 2aR” value with FcgRIIaR [6] was 1.1 fold. Besides, the “fold 2aH” value with FcgRIIaH [7] turned out to be 3.5 fold. For the same molecule, the “fold 2b” value in the assay with FcgRIIb [8] worked out at 0.5 fold. Further, the “fold 3aF” value with FcgRIIIaF [9] is 70.7 fold. Moreover, the “fold 3aV” value with FcgRIIIaV [10] came to 100 fold.
